Test system: CC[C@H](C)[C@H](NC(=O)[C@@H](C[C@H](O)[C@H](CC(C)C)NC(=O)[C@H](Cc1c[nH]cn1)N(C)C(=O)[C@H](Cc1ccccc1)NC(=O)[C@@H]1CCCN1C(=O)OC(C)(C)C)C(C)C)C(=O)NCc1ccccn1
Assay: TP_TRANSPORTER: uptake, inhibited by Cyclosporine, Nicardipine, Daunomycin, Verapamil, Reserpine, Rhodamine 123 and Vinblastine in bile canalicular membrane vesicles
Assay type: functional, cell membranes
Settings: Rattus norvegicus; Bile canalicular membrane vesicle

“Multidrug resistance protein 1a (Rattus norvegicus), Q6PSM0” was tested, and the Km was 19.1 µM.
